According to the Immune Epitope Database (IEDB):
pKd: −log10 of the molar value. One block for each sequence: values may come before it.

Key:
HLA-A*11:01 = experiment: IEDB peptide-MHC binding, purified MHC/direct/fluorescence; filed as Kd, often an IC50 or EC50 that approximates it; ≥ and ≤ were set here for values at or beyond the usual limits of such assays
HLA-B*44:02 = experiment: as above
HLA-A*26:01 [1] = experiment: as above
HLA-B*27:05 = experiment: as above
HLA-A*69:01 [2] = experiment: as above
HLA-A*31:01 = experiment: as above
HLA-A*02:01 [3] = experiment: as above
HLA-A*01:01 = experiment: as above
HLA-B*35:01 = experiment: as above
HLA-B*07:02 = experiment: as above
HLA-A*03:01 [4] = experiment: as above
HLA-B*08:01 = experiment: as above
HLA-A*29:02 = experiment: as above; conditions: source organism: Limestone Canyon virus
HLA-A*02:03 [5] = experiment: as above; conditions: source organism: Limestone Canyon virus
HLA-A*02:19 [6] = experiment: as above; conditions: source organism: Limestone Canyon virus
HLA-A*02:16 [7] = experiment: as above; conditions: source organism: Limestone Canyon virus
HLA-A*02:12 [8] = experiment: as above; conditions: source organism: Limestone Canyon virus
HLA-A*24:03 [9] = experiment: as above; conditions: source organism: Limestone Canyon virus
HLA-B*39:01 [10] = experiment: as above; conditions: source organism: Orthohantavirus sinnombreense
HLA-A*02:11 [11] = experiment: as above; conditions: source organism: Limestone Canyon virus
HLA-B*15:01 [12] = experiment: IEDB peptide-MHC binding, purified MHC/competitive/fluorescence; filed as Kd, often an IC50 or EC50 that approximates it; ≥ and ≤ were set here for values at or beyond the usual limits of such assays
HLA-B*18:01 [13] = experiment: as above
HLA-A*26:01 [14] = experiment: as above
HLA-B*51:01 = experiment: as above; conditions: source organism: Orthohantavirus sinnombreense
HLA-A*02:01 [15] = experiment: as above
HLA-B*57:01 [16] = experiment: as above
HLA-B*46:01 [17] = experiment: as above
HLA-B*27:03 = experiment: as above
HLA-B*15:01 [18] = experiment: IEDB peptide-MHC binding, purified MHC/direct/fluorescence; filed as Kd, often an IC50 or EC50 that approximates it; ≥ and ≤ were set here for values at or beyond the usual limits of such assays
HLA-B*18:01 [19] = experiment: as above; conditions: source organism: Yellow fever virus
HLA-B*15:09 = experiment: as above; conditions: source organism: Yellow fever virus
HLA-B*48:01 = experiment: as above; conditions: source organism: Yellow fever virus
HLA-B*58:01 = experiment: as above
HLA-B*57:01 [20] = experiment: as above; conditions: source organism: Yellow fever virus
HLA-B*46:01 [21] = experiment: as above; conditions: source organism: Yellow fever virus
HLA-B*40:01 = experiment: as above
HLA-A*02:03 [22] = experiment: IEDB peptide-MHC binding, purified MHC/competitive/fluorescence; filed as Kd, often an IC50 or EC50 that approximates it; ≥ and ≤ were set here for values at or beyond the usual limits of such assays; conditions: source organism: Homo sapiens
HLA-B*15:17 = experiment: as above; conditions: source organism: Homo sapiens
HLA-A*69:01 [23] = experiment: as above; conditions: source organism: Homo sapiens
HLA-A*02:19 [24] = experiment: as above; conditions: source organism: Homo sapiens
HLA-A*68:02 = experiment: as above; conditions: source organism: Homo sapiens
HLA-A*02:16 [25] = experiment: as above; conditions: source organism: Homo sapiens
HLA-A*02:12 [26] = experiment: as above; conditions: source organism: Homo sapiens
HLA-A*24:03 [27] = experiment: as above; conditions: source organism: Homo sapiens
HLA-A*03:01 [28] = experiment: as above; conditions: source organism: Homo sapiens
HLA-B*39:01 [29] = experiment: as above; conditions: source organism: Homo sapiens
HLA-A*02:11 [30] = experiment: as above; conditions: source organism: Homo sapiens
[31] = source organism: Vibrio parahaemolyticus
[32] = source organism: Orthohantavirus sinnombreense
[33] = source organism: Yellow fever virus
[34] = source organism: Haemophilus influenzae

Sequence: AFDWPELEF
pKd (HLA-A*11:01; [31]): ≤ 4.70 | pKd (HLA-B*44:02; [31]): ≤ 4.70 | pKd (HLA-A*26:01 [1]; [31]): ≤ 4.70 | pKd (HLA-B*27:05; [31]): ≤ 4.70 | pKd (HLA-A*69:01 [2]; [31]): ≤ 4.70 | pKd (HLA-A*31:01; [31]): ≤ 4.70 | pKd (HLA-A*02:01 [3]; [31]): ≤ 4.70 | pKd (HLA-A*01:01; [31]): ≤ 4.70 | pKd (HLA-B*35:01; source organism: Vibrio vulnificus): 7.11 | pKd (HLA-B*07:02; [31]): ≤ 4.70 | pKd (HLA-A*03:01 [4]; [31]): ≤ 4.70 | pKd (HLA-B*08:01; [31]): ≤ 4.70

Sequence: YKSRCYVGL
pKd (HLA-A*29:02): ≤ 4.70 | pKd (HLA-A*02:03 [5]): ≤ 4.70 | pKd (HLA-A*02:19 [6]): ≤ 4.70 | pKd (HLA-A*02:16 [7]): ≤ 4.70 | pKd (HLA-A*02:12 [8]): ≤ 4.70 | pKd (HLA-A*24:03 [9]): ≤ 4.70 | pKd (HLA-A*03:01 [4]; source organism: Limestone Canyon virus): ≤ 4.70 | pKd (HLA-B*39:01 [10]): 6.53 | pKd (HLA-A*02:11 [11]): ≤ 4.70 | pKd (HLA-B*15:01 [12]; [32]): ≤ 4.70 | pKd (HLA-B*18:01 [13]; [32]): ≤ 4.70 | pKd (HLA-A*26:01 [14]; [32]): ≤ 4.70 | pKd (HLA-B*51:01): ≤ 4.70 | pKd (HLA-A*02:01 [15]; [32]): ≤ 4.70 | pKd (HLA-B*57:01 [16]; [32]): ≤ 4.70 | pKd (HLA-B*46:01 [17]; [32]): ≤ 4.70 | pKd (HLA-B*27:03; [32]): ≤ 4.70

Sequence: FHKRDMRLL
pKd (HLA-B*15:01 [18]; [33]): ≤ 4.70 | pKd (HLA-A*11:01; [33]): ≤ 4.70 | pKd (HLA-B*18:01 [19]): ≤ 4.70 | pKd (HLA-B*44:02; [33]): ≤ 4.70 | pKd (HLA-B*15:09): 5.52 | pKd (HLA-B*48:01): ≤ 4.70 | pKd (HLA-B*27:05; [33]): ≤ 4.70 | pKd (HLA-A*69:01 [2]; [33]): ≤ 4.70 | pKd (HLA-A*31:01; [33]): ≤ 4.70 | pKd (HLA-A*02:01 [3]; [33]): ≤ 4.70 | pKd (HLA-B*58:01; [33]): ≤ 4.70 | pKd (HLA-B*57:01 [20]): ≤ 4.70 | pKd (HLA-A*01:01; [33]): ≤ 4.70 | pKd (HLA-B*46:01 [21]): ≤ 4.70 | pKd (HLA-B*40:01; [33]): ≤ 4.70 | pKd (HLA-B*07:02; [33]): ≤ 4.70 | pKd (HLA-A*03:01 [4]; [33]): ≤ 4.70

pKd (HLA-B*15:01 [12]; source organism: Homo sapiens): ≤ 4.70 | pKd (HLA-B*18:01 [13]; source organism: Homo sapiens): ≤ 4.70 | pKd (HLA-A*02:03 [22]): ≤ 4.70 | pKd (HLA-B*15:17): ≤ 4.70 | pKd (HLA-A*26:01 [14]; source organism: Homo sapiens): ≤ 4.70 | pKd (HLA-A*69:01 [23]): ≤ 4.70 | pKd (HLA-A*02:19 [24]): ≤ 4.70 | pKd (HLA-A*02:01 [15]; source organism: Homo sapiens): ≤ 4.70 | pKd (HLA-B*57:01 [16]; source organism: Homo sapiens): ≤ 4.70 | pKd (HLA-A*68:02): ≤ 4.70 | pKd (HLA-A*02:16 [25]): ≤ 4.70 | pKd (HLA-B*46:01 [17]; source organism: Homo sapiens): ≤ 4.70 | pKd (HLA-A*02:12 [26]): ≤ 4.70 | pKd (HLA-A*24:03 [27]): ≤ 4.70 | pKd (HLA-A*03:01 [28]): ≤ 4.70 | pKd (HLA-B*27:03; source organism: Homo sapiens): ≤ 4.70 | pKd (HLA-B*39:01 [29]): ≤ 4.70 | pKd (HLA-A*02:11 [30]): ≤ 4.70
Sequence: FWAWSVLRV

pKd (HLA-B*15:01 [18]; [34]): ≤ 4.70 | pKd (HLA-A*11:01; [34]): ≤ 4.70 | pKd (HLA-A*26:01 [1]; [34]): 6.25 | pKd (HLA-B*27:05; [34]): ≤ 4.70 | pKd (HLA-A*69:01 [2]; [34]): ≤ 4.70 | pKd (HLA-A*31:01; [34]): ≤ 4.70 | pKd (HLA-A*02:01 [3]; [34]): ≤ 4.70 | pKd (HLA-B*58:01; [34]): ≤ 4.70 | pKd (HLA-A*01:01; [34]): ≤ 4.70 | pKd (HLA-B*35:01; [34]): 7.29 | pKd (HLA-B*40:01; [34]): ≤ 4.70 | pKd (HLA-B*07:02; [34]): 5.98 | pKd (HLA-A*03:01 [4]; [34]): ≤ 4.70 | pKd (HLA-B*08:01; [34]): 5.58
Sequence: EIKFNDITF
